The text below walks through data of a protein production outcome set (Wang et al. 2014).

The data set in a line: label from the status in PepcDB records.

Consider “MPFERFVQTGRIAKASAGPLKGRLVAIVDVIDQNRVLVDGPLTGVPRQEYRLNNLHLTKYRIKFPYTAPTRIVRKAWTESDLKAQWKVSPWSVKAQNICKRSSLNDFDRFKLRYAKRQRNKLLTIAFNTLKKRTKADGTPRVLKKDRRERLRAEKAKGGKKAAAKK”, for which the protein production result is listed as “failed”. Then “MPFETPDLLGPSEPVPDRLSANEFLLRPLTPTDAEIDYEAVTESGDRLHGIFGPDDEWPTGLTPEQNRIDVCWHYREHQRRDAFTYGVFDPAETTELGCLYVQPTRIEGYDAAVYYWTAAAAVERGLADEIETACREWVATEWPFGRVAYPGRDVSWQAVPAAGTEGD”, with “failed”; and “MPFLFPKFWVMSAPHDTHVSRRLRRGLASACAVVTAIAAFSPAHAAPSPNKAGPMSGSTGRTTVGQLLTPAGQLTTLGDLPLNEALSPDGRYLIVSNNGQGTQSLQVIKTATGKVVQTIPYKSPESLYMGLAFSPDGTHLFASAAGNHKIRTYHFDCGKLVETSAIQMPVVSPKLTKVNLYPAGLAVTNDSKRLVVADQLADAVSVIDLATNKIQTTHIGHRPVWVTLSKDSTKAFVSSQGGADVAEVDITKSQPLATHKINVGFHPNKSVLTPDGKSLYVANGDADTISVVDVASHRQTATIPVNRNGSKLVGANPTGLALSQDGKRLYVTNSGHNEVAVINAATRKVIGDIPTGWYPTQVLAHDGKLSITSAKGLGAGPNNGPGHPNPTDPRDTAENQYSGSMIKGLLSTVNGMTQRPWPS”, with “failed”; and “MPFPSLPSPLARALTERNYAEPTPVQQAVLDAVPERDLLVSAQTGSGKTVAFGLAIAGTLLGEDETLPPPGAPLALVIAPTRELALQVQRELTWLYAQTGARIVPCVGGMDPRREARALEAGVHIVVGTPGRLRDHMERGRLVTEGLRAVILDEADEMLDMGFREDLEFILASTPKDRRTLLFSATLPKAIVALAESYQRDALRLAVAGETRGHADIVYRAVRVMPREVEHAVVNILRYVDAPVAIVFCNTRDGVRHLQASLTERGFSAVALSGELGQGERNAALQALRDGRARVCVATDVAARGIDLPGLDLVIHADLPHDAEVMQHRSGRTGRAGRKGTSVVLVPPAKRRRAEQMFAIAKVSPDWSGPPNADEIRILDRERMMSDPLLAEPETEEDREWEREWAEALMERCPPERLAAAFARLYRSRIPVPEEVSDPAYETSRRPDSRSGVPVGASRVGDDEPAAWFRLNLGRRDRAEPRRLLPMLTRRGQIGRGDIGSIRIFDNETTFEVRASAADDFAASFARRGPADVRVERMQGDGPAAAKAPKSPRAQRHRREATKTGRGG”, with “failed”.

As to “MPFTVTIEVSKQFETSTLPEKVFALLSDVPRSASYFPDVEKLEPLGSNAFRWIMEKNAIGGHTLKQTIYACTYRSDRVTMSVAWVPVEGEGNARVEGNWQIEFAFIQKIDRYISNLKETFAK”, the protein production entry is recorded as “failed”.

“MPGIDIVIVNWNSGNQLRECLRSIGNLVGEAEPLTVTVVDNASCDGSADGLPEPSCPLRVIRNRANLGFGRASNLGAREGSADYLLFLNPDTRLHPGALSIPLGFMESETGRHVGICGVQCLDETGGVARCCARFPTAWRLVGQALGLDRLFPRWIPPHFLGEWPHDSDRDVDQVIGAFFFVRRAVFEQLGGFDERFFVYYEDLDFALRARRAGWGSRYLAGARIFHRGGGVSRQISARRLHYLTHSKLRYARKHFAGIDAFLVSAAVLLLEPLARSAYALGRGRPGEFADTWKAFGGLYASLCRPGENGRLEHHHHHH”: the protein production result is reported as “failed”.

With “MPGITFKEDANERGRQIEHWPLLKNGSIFVIADDGTRYFQEDAKHRHGHVYTHGSWLIPMNNQHPYLIFDQTQYDAFKQEESQAGQLPYPKFMTKLVSAPTIAQLAAKLGVPANNLQQTVTDFNHYTEVGRDFEFGRDPQTMRQLDDGPYYAIAALEHHHHHH”, the protein production entry was “not failed”. Then “MPGPIMQEVAQYLASLSGKAVVINIFAGHADRSLSQTQLAELLDKLLARHPGSAVILLDHRREIRIPLPPEVVINPFNTLHHAMALIAQAELIISPDTSVVHMAAAWNKPLIAVYKDVLLNNRLWAPGYDNARQIIVKCGKVHQHRGLVDRIIAALPETLLEHHHHHH”, with “failed”. Consider “MPGPKDLDPSSSPRALLGAELRHAREKSGLSQEELGARLFVSGSFIGQLESGTRRMQPEYARLLDDVLDTEDFFRRNCTASAKSKYPEHFAQAAEAEGTAREIKEYASMLIPGLLQTPAYARAVCRAYQPTAPDDAIEELVTARMERARMLADPTGPVLWAVVDESALRRSTGGPGVMAEALRHLAHLMRENRVIVQVLPFEAGAHPAMQGCVKLMDFADAPSLVYLEGVGTGRVDDDPATVGRYRFYYELLMVAALSTTKSLSLIEKLAQNYAHGDHP”, for which the protein production result was “failed”. For “MPGPSRKAAAWLPILVILVAMTSIQSGASLAKSLFPVVGAPGVTALRLALGTLILVVVFKPWRLRFSPAQRVPLLLYGLALGAMNYLFYLSLQRIPLGVAVALEFTGPLAVALFGSRRPLDFVWVALAILGLWYLLPLGQNVAQVDLTGALFALGAGACWAVYILTGQRAGEEHGPATVAMGSLIASLVFVPLGMAQATDTLWQWSLLPLGLGIAILSTALPYSLEMMALTRLPTRTFGTLMSLEPALAALSGMIFLGETLKLSQTLALGAIIIASMGATLTMQRQSKVEQVDIN” the value was “failed”. For “MPGQSRFPLPLIAAFFALYVIWGSTYLVIRIGVEYWPPLMLGGIRFIIAGSLMYAFLRWRGVPAPTWAQWKAAGIIGVLLLSCGNGAVTLAEHSGVTSGVAALAVATVPLFTLLCGYFWGARNTRLEWAGIVLGMIGIGMLNLGSNLQSSPMGAALLLFAAAAWAFGSVWSKHLPLPQGAMASAAEMLVGGVVLMIGSALSGEHLDTLPPMEGWLALAYLAGFGSIIAFNAYMYLLKHVRPAAATSYAYVNPAVAVLLGIVFVGETIGIEEAMAMLVIISAVVLIGLPQWRKPKAAAQEEAA” the value was “failed”; for “MPGSLRKMPVWLPIVILLVAMASIQGGASLAKSLFPLVGAPGVTALRLALGTLILIAFFKPWRLRFAKEQRLPLLFYGVSLGGMNYLFYLSIQTVPLGIAVALEFTGPLAVALFSSRRPVDFVWVVLAVLGLWFLLPLGQDVSHVDLTGCALALGAGACWAIYILSGQRAGAEHGPATVAIGSLIAALIFVPIGALQAGEALWHWSVIPLGLAVAILSTALPYSLEMIALTRLPTRTFGTLMSMEPALAAVSGMIFLGETLTPIQLLALGAIIAASMGSTLTVRKESKIKELDIN”, “failed”. Consider “MPHLFYGTAQNGEVIFDEREAHHMRVVRLKEGDVIEATDGNGFSYTCILKSLKKKTAAAKIVKVEEKEKEPTEKLSVVVPIGRWERTRFLIEKCVELGVDEIFFHKFERSQHEISLDKAKIVVREAAKQCKRYLFPKVSFLEKLEFSGNVITLDLDASQNLLDANLEGSITVVVGPEGGFSEKERELLRSSTTIVSLGKKILRFETAAILTVGYIALKKQKI”, for which the protein production result is listed as “not failed”. For “MPHLNILIVRIEEFLRSIVKITSAPTYKTRVKSFNSYYLKLLKFPPKKDTSDLPVLTDILGVRIICPFLQDINEVERILLKNFKIIEVERKGSERTFREFGYESVHFLLDIPEEFKVGLVLPKNLIFEIQLRTILQDAWAEVEHELVYKSEFSPFDQPLKRKLASINASLSLADIIFQEIRDYQNKLNAELEKRRFEFYSMADEYTAQVLPETNIVQHDNVEHGEELKLAETIDDLILSAIEAHNQNLFDKAEKIYTKIIEQNPNDIVLSVVYKHRGMAYFAQANYEGAYADFLQSCKYNSANFRSFYYVGIALTLLNRDDEAIEYFTKSLEINKFQAHVYFRRALSYFKLALYPEAARDLDSASDLGLAEEDAKKLRIAIAKKIDMV” the value was “failed”; for “MPHLTKAVHDYRLAAMHRLMDRLRVDALVFGSPDFFQYATNFQLDVWPWERPVFVVVPRNGETFAVMNELSTNHMRFATEKGTVWLSDVTYYAEHPRVANRLALPSQLPEVVAALLAAKGLGMSRIAVDVQHPILTGAQRYLPEMTLRPAMAEMRSLRWVKHAEELQIMRDLAALTDWVQDRYRENIRPGRLVQELDHAMAALMVEEAARRFAGEDFEIMKCWTLTGAASASPHGDGAACGSRIAKGDTIVNLVLPRLNGLYVENERTWFCGQPSDEQARFYSVAARATDAAVAAAVVGRRVCDMDAAAQAVIESAGCGDYVFHRTGHAVGLMLHEYPEDMAFNTRPLLAGEVYSSEPGLYVYGLGGFRLDDTVVVGEVPEVIVKTPKTLSYATVSL”, “failed”; for “MPHPNRTFKIVIAPDSFKSTATTSQAAAFIAEGIQAAVQSNECEGINVEITTVPMADGGEGTSSCFEGIDITLPTTDANGRLTEATYRFDPQSETAYIDVAAASGLPAVEDELRPLTADTYGTGVLIADAQTRGARR”, “not failed”. Then “MPHQKIYLVGAGIEGWEGFGAKALEVIGKAEVLVGHKRHLDIFSDFTGKKQELGDLSILLEQLRSTDKRTVVLGSGDPNFFGIARFLLRNLPKERIEIFPNVTSVQYAFAQIKEPWDDAIFVSVHGRGLKGAVDRIVAAEKVAVLTDKTNSPAAIARELIARGAEGYEAWLCENLGLPGEKFTRTDVKGLLELPAAELNILILIKAWEPQLAQYPVIGIDDDEFATAKKLITKQEVRAVTLSKLRLQDDLVMWDIGAGSASVSIEASNLMPNGRIFALERNPQYLGFIRDNLKKFVARNVTLVEAFAPEGLDDLPDPDRVFIGGSGGMLEEIIDAVDRRLKSEGVIVLNAVTLDTLTKAVEFLEDHGYMVEVACVNVAKTKGLTEYKMFESHNPVYIITAWKSDE”, with “failed”; and “MPIEIITDSGADLPQSYIREHRIAFLPLVVHWNGQDYKDGITIEPKQVYDAMRQGHTVKTAQPSPLAMKELFLPYAKENRPCLYIAFSSKLSGTYQTAMAVRSELLDEYPEFRLTIIDSKCASLGQGLAVMKAVELAKQNTPYNLLCETIESYCRHMEHIFTVDNLDYLARGGRISKTAAAFGGLLNIKPLLHVEDGALIPLEKWRGRKKVLKRMVELMGERGDDLQKQTIGISHADDEETALELKQMIEETHGCTRFFLSDIGSAIGAHAGPGTIALFFLNKYIEI”, with “not failed”. For “MPIQRREFIAAIGTGALATTAGCAQSGEGSGQTEAETEAESGGGGQPGVAGETLTLTTTTSTYDTGLLDEIHPDFEDMYGVSVDAVAQGTGAALESARNGDSDIVMVHARGLEDDFMRNGYGINRRDLMFNDFVIVGPEDDPAGIQGMGSATEALTTIAESESQFVSRGDNSGTHTKELNLWEAAGTEPGGNWYQETGTGMGEALNIANQQGAYTLSDRGTYISQRSEIDLVILVQGPIEDGPEILANPYGIMAVNPGVHDNANYDLAMAYIGWITSPGTQDAISNYQVNGEQLFFPEAVSEDPNFQQYVPEGWSSDAGE” the value was “failed”; for “MPIRVYTKVELALLYAPHLSENAALNNLSRWMRHNKLLMAALEEVGYYKYRHSFTPKEVRLIFRYMGEPGALEHHHHHH”, “not failed”. For the sequence “MPITVHAYTSLDNEEIRTQLERLYDTSPEFGDGQDAIEQLEQNLAQYTTVYTAEFNTKIIGAIWCTGQGESKILEYIVVHPANRGRGIAERLVSEVCRMEEAKGVTMFEPGCGAIHRCLAHIGKLSV”, the protein production entry is recorded as “failed”. For “MPKAAWEPEYHRVFVDLCVEQKMLGNQPGTQHILKPFLQRTGARFTRNQLKNHWDTMIKQWKIWCRLVQCSDMQWDPQTNTFGANDQDWANYLHVNPEAGQYRLNPPSFLEKLELIFEDSNLDDEGTSGSKRKRIAKHRDEDNDNTGDEEDTQSASNFSSPQSKGYWSPSSHELFVDLLFQEALKGNRPDSHYPKETWKMILETINQNTGKSFTRPQLKNHWDCTRKSWKIWCQVIGAPVMKWDATSRTFGATDEDWKNYLKENHRAAPFRRKQLPHADKLATIFKGLIEPGKAYFRSYRRRVLDHHSESPQLHDPTPLSTLYTNEPVSGSEGGADEDDNDDDDEQPTPQHRRFNSVGFAESRLQDVEIVTPGCHRLKTELMKESPVSASVRQYEYTIGECIECLDSMEEVEQGSDLYLFALDLFVKKEYREIFLLLKNSSLRMSWLLRLRSGGLTIAA” the value was “failed”.
